Measurements published in publication PMC7722741, “The bacterial multidrug resistance regulator BmrR distorts promoter DNA to activate transcription”.

B1: Pbmr-wt1 (dsDNA)
DNA 1: TTTAGAAAGATTTTGCAAATCCGTTGACTCTCCCCTAGGAGGAGGTCTTACAGTATAAGGGATACACACTTG
DNA 2: CAAGTGTGTATCCCTTATACTGTAAGACCTCCTCCTAGGGGAGAGTCAACGGATTTGCAAAATCTTTCTAAA
B2: Pbmr-2 (mixed)
DNA 1: TTTAGAAAGATTTTGCAAATCCGTTGACTCTCCCCTAGGAGGAGGTCTTATAATGGGAGCTGTCACGGATGC
DNA 2: GCATCCGTGACAGCTCCCATTATAAGACCTCCTCCTAGGGGAGAGTCAACGGATTTGCAAAATCTTTCTAAA

Target: BmrR;RNAP-sigmaA holoenzyme (Bacillus subtilis;Bacillus subtilis, UniProt P39075;P20429;P37870;P37871;O35011;O31718;P06224 …, |)
Test: EMSA; TPP 500 uM; heparin challenge; stable open complex stated in peer review file; EMSA: 10 mM HEPES pH 7.5, 100 mM KCl, 5 mM MgCl2, 3 mM DTT, 1 h room temperature, 0.75 uM RNAP, 0.5 uM DNA, 0 or 2 uM BmrR, 0 or 500 uM TPP, heparin 100 ug/ml when indicated; 5% TBE gel
Conditions: protein: recombinant;native; tags: ;; chain copies: 2;2;1;1;1;1;1

| Binder | binding result |
| --- | --- |
| B1 | binds |
| B2 | binds |
